Assay [1] concerns Cry j I reactive T cells. The experiment in a line: T cell proliferation assay, Cry j I primed T cell lines, modified peptides (Example 11). It is filed as cell-based, human. Particulars: panel of thirty-nine patients, FIG. 21. Here is the method: Long term T cell lines were established by stimulation of 2×10^6 PBL/ml in bulk cultures of complete medium (RPMI-1640, 2 mM L-glutamine, 100 U/ml penicillin/streptomycin, 5×10^−5M 2-mercaptoethanol, and 10 mM HEPES supplemented with 5% heat inactivated human AB serum) with 20 μg/ml of partially purified native Cry j I (75% purity containing three bands similar to the three bands in FIG. 2) for 6 days at 37° C. in a humidified 5% CO2 incubator to select for Cry j I reactive T cells. This amount of priming antigen was determined to be optimal for the activation of T cells from most cedar pollen allergic patients. Viable cells were purified by LSM centrifugation and cultured in complete medium supplemented with 5 units recombinant human IL-2/ml and 5 units recombinant human IL4/ml for up to three weeks until the cells no longer responded to lymphokines and were considered “rested”. The ability of the T cells to proliferate to selected Cry j I peptides, partially purified Cry j I, affinity purified Cry j I, or positive (PHA) controls or negative controls (medium only) was then assessed. […]
The maximum response in a titration of each peptide is expressed as the stimulation index (S.I.). […]

Assay [2] relates to allergic patient IgE. Put plainly: Competition ELISA, wells coated with Japanese cedar pollen SPE. The class given is binding, human. On the procedure: In the competition assay, ELISA wells were coated with Japanese cedar pollen SPE and then allergic patient IgE binding was measured in the presence of competing purified native Cry j I in solution. The source of allergic IgE in these assays was either the pool of plasma from 15 patients (denoted PHP) or seven individual plasma samples from patients with a Japanese cedar MAST score of 2.5 or greater. The competition assay using the pooled human plasma samples compares the competitive binding capacity of purified native Cry j I to Japanese cedar pollen SPE and an irrelevant allergen source, rye grass SPE. […] This assay was repeated with individual patients as a measure of the range of the IgE response within the allergic population.
(In an ELISA, binding on a coated surface is turned into a signal by an enzyme label.)

Assay [3] has as its system human basophil. Put plainly: Histamine release assay. Particulars: one Japanese cedar pollen allergic patient, FIG. 11. The class given is cell-based. On the procedure: To determine whether a peptide which binds IgE results in the release of mediators, a histamine release assay can be performed using standard reagents and protocols obtained for example, from Amac, Inc. (Westbrook, Me.). Briefly, a buffered solution of a peptide to be tested is combined with an equal volume of whole heparinized blood from an allergic subject. After mixing and incubation, the cells are pelleted and the supernatants are processed an analyzed using a radioimmunoassay to determine the amount of histamine released.
A histamine release assay was performed on one Japanese cedar pollen allergic patient using Japanese cedar pollen SPE, purified native Cry j I and rCry j I as the added antigens. This assay is a measure of IgE reactivity through human basophil mediator release. […] Two possible explanations for this release by the rCry j I are: 1) specific reactivity with a very low proportion of the anti-Cry j I IgE capable of recognizing the recombinant form of Cry j I, or 2) non-specific release caused by low abundance of bacterial contaminants observed only at the highest antigen concentration. […] In addition, the data shown are from single data points at each protein concentration.

The subject of assay [4] is patients' plasma IgE. Put plainly: Direct binding assay of IgE to Cry j I, Cry j II and recombinant Cry j II (Example 18). On the set-up: species or system human. Here is the method: Costar assay plates were coated with Cry j I or Cry j II at 2 μg/mL or recombinant Cry j II preparation at 10 μg/mL (approximately 20% pure) in a volume of 50 μL overnight at 4° C. The coating antigens were removed and the wells were blocked with 0.5% gelatin, PVP (polyvinyl pyrolidine) 1 mg/mL in PBS, 200 μL/well for 2 hours at room temperature. The anti-Cry j I monoclonal antibody, 4B11, was serially diluted in PBS-Tween 20 starting at a 1:1000 dilution. The human plasma were serially diluted in PBS-Tween at a starting dilution of 1:2. For this set 23 plasma samples from patients symptomatic for Japanese cedar pollen allergy chosen for IgE binding analysis. The first antibody incubation proceeded overnight at 4° C. Following three washes with PBS-Tween the second antibodies were added (biotinylated goat anti-mouse Ig or goat anti-human IgE both at 1:2000) and incubated for two hours at room temperature at 100 μL/well. After washing 3 times, […]. This solution was removed and streptavidin-HRPO diluted to 1:10,000, was added at 100 μL/well. The color was allowed to develop for 2-5 minutes. The reaction was stopped by the addition of 100 μL/well of 1M phosphoric acid. Plates were read on a Microplate IL310 Autoreader (Biotek Instruments, Winooski, Vt.) with a 450 nm filter. The absorbance levels of duplicate wells were averaged. A positive binding result, indicated by a plus sign is determined to be a reading of two-fold or greater above background (no first antibody) at the second dilution of plasma ([…]).

The test system of assay [5] is IgE antibodies. Particulars: Sakaguchi (1990); cited from earlier work.

B1: purified native Cry j I: major allergen of Japanese cedar pollen, biochemically purified in the native form (protein)
chain: DNPIDSCWRGDSNWAQNRMKLADCAVGFGSSTMGGKGGDLYTVTNSDDDPVNPAPGTLRYGATRDRPLWIIFSGNMNIKLKMPMYIAGYKTFDGRGAQVYIGNGGPCVFIKRVSNVIIHGLYLYGCSTSVLGNVLINESFGVEPVHPQDGDALTLRTATNIWIDHNSFSNSSDGLVDVTLTSTGVTISNNLFFNHHKVMLLGHDDAYSDDKSMKVTVAFNQFGPNCGQRMPRARYGLVHVANNNYDPWTIYAIGGSSNPTILSEGNSFTAPNESYKKQVTIRIGCKTSSSCSNWVWQSTQDVFYNGAYFVSSGKYEGGNIYTKKEAFNVENGNATPQLTKNAGVLTCSLSKRC
On to B1, for which, in assay [1], the “T cell line response” value was “All but one of the thirty-nine T cell lines responded”. Further, the “competition for IgE binding to coated Japanese cedar pollen SPE” value in assay [2] (pooled human plasma (PHP), 15 patients, FIG. 6) was “competes very well”; in assay [2] (seven individual patients, FIG. 7), “could be competed”. In assay [3], the histamine release result is given as “strong histamine release”. Besides, the “plasma IgE binding response” value in assay [4] (patient #1034) is on record as “no detectable binding”; in assay [4] (patient plasma samples, FIGS. 31-33) it was “variable response”. In addition, in assay [5], the “allergic patients with IgE that only reacted with this allergen” value is reported as 29%.

(Values after US8540999B2, “Allergenic proteins and peptides from Japanese cedar pollen” (Merck Patent GmbH, priority 1991, dated 2013).)
